Data: patent US20030166009A1 (MERCK, published 2003)
Like-named read-outs stand apart in the source and are kept apart here. One block for each molecule: values may come before it. Where no end group is shown, it is not given here.

Key:
human MC5 receptor [1] = biological target: T1, human MC5 receptor (human, UniProt P33032 1-325)
T1 construct: whole, on cells; It was tested as crude membranes prepared from cells expressing the receptor; also called hMC-5R

[2] = biological target: rhesus melanocortin-4 receptor protein (rhesus monkey (Macaca mulatta))
Sequence of rhesus melanocortin-4 receptor protein (rhesus monkey (Macaca mulatta)) (Q8HXX3 whole entry R167G): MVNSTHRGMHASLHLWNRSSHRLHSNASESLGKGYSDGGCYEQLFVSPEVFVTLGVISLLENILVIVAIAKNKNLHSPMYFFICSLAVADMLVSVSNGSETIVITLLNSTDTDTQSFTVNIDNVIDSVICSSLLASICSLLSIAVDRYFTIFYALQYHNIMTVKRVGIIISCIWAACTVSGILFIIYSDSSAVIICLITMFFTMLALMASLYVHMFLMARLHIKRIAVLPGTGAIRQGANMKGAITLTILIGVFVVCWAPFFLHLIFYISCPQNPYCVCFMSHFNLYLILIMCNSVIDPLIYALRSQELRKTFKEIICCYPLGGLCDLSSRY

human MC4 receptor [3] = biological target: T2, human MC4 receptor (human, UniProt P32245 1-332)
T2 construct: whole, on cells; It was tested as crude membranes prepared from cells expressing the receptor; also called hMC-4R
T2 sequence (P32245 whole entry): as the sequence (Q8HXX3 whole entry R167G) above, with A11T, H21Y, T114A, V296I counted along it

human MC3 receptor [4] = biological target: T3, human MC3 receptor (human, UniProt P41968 1-323)
T3 construct: whole, on cells; It was tested as crude membranes prepared from cells expressing the receptor; also called hMC-3R
T3 sequence (P41968 whole entry): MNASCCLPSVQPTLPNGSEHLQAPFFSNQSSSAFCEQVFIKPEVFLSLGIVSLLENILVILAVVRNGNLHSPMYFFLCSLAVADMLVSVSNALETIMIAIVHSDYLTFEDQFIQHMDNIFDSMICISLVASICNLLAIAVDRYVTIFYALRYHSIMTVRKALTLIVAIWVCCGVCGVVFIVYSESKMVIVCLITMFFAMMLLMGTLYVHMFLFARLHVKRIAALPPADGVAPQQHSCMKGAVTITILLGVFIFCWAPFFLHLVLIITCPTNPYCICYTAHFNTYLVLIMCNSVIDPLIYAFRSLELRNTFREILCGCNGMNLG

human MC5 receptor [5] = biological target: T1, human MC5 receptor; remark: listed apart in the source
Procedure: (§1) Reactions were incubated for 1 hour without shaking and then filtered through 96-well filter plates (Packard corp.). Filters were washed three times with TNE buffer (50 mM Tris pH 7.4, 5 mM EDTA, 150 mM NaCl), dried and counted using Microscint-20 in a Topcount scintillation counter (Packard).
(§2) Membranes prepared from rhesus MC-4R transfected cells were evaluated alongside membranes prepared from human MC-4R, MC-4R, and MC-5R expressing cells.

[6] = biological target: T4, rhesus melanocortin-4 receptor protein (rhesus monkey (Macaca mulatta), UniProt Q8HXX3 1-332 (cynomolgus entry))
T4 construct: This is the full-length 332 amino acid receptor encoded by pVE3099; also called rhMC-4R; rhesus MC-4R
T4 sequence (Q8HXX3 whole entry R167G): as the sequence (Q8HXX3 whole entry R167G) above
Procedure: as §1, §2

human MC3 receptor [7] = biological target: T3, human MC3 receptor; remark: listed apart in the source
Procedure: as §1, §2

human MC4 receptor [8] = biological target: T2, human MC4 receptor; remark: listed apart in the source
Procedure: as §1, §2

T1 sequence (P33032 whole entry): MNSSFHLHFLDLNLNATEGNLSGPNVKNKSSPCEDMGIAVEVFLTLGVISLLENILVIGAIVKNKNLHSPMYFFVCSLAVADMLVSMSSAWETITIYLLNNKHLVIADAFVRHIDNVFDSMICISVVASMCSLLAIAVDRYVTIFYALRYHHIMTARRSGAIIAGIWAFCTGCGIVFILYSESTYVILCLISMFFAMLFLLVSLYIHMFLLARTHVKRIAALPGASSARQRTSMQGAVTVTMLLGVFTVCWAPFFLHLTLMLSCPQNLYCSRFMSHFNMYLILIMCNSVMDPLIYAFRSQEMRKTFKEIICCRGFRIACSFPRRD

B1: ACTH1-39 (peptide, UniProt P01189 138-176, looked up)
peptide: SYSMEHFRWGKPVGKKRRPVKVYPNGAEDESAEAFPLEF
notes: domain: ACTH1-39; The numbers 1-39 count on the ACTH peptide, not on the precursor
- IC50 (human MC5 receptor [5]): 0.4 nM
- IC50 [6]: 1.3 nM
- IC50 (human MC3 receptor [7]): 6 nM
- IC50 (human MC4 receptor [8]): 6 nM

B2: Alpha MSH (peptide, UniProt P01189 138-150, looked up)
peptide: SYSMEHFRWGKPV
notes: domain: alpha MSH; The peptide is only a part of it; also called α-MSH; α-melanocyte stimulating hormone
- IC50 [6]: 27 nM

B3: Beta MSH (peptide, UniProt P01189 217-234, looked up)
peptide: DEGPYRMEHFRWGSPPKD
notes: domain: beta MSH; The peptide is only a part of it; also called β-MSH
- IC50 (human MC5 receptor [5]): 166 nM
- IC50 [6]: 23 nM
- IC50 (human MC3 receptor [7]): 23 nM

B4: Gamma MSH (peptide, UniProt P01189 77-87, looked up)
peptide: YVMGHFRWDRF
modifications: ends and bridges not checked
notes: domain: gamma MSH; The peptide is only a part of it; also called γ-MSH
- IC50 [6]: 211 nM

Other lines, results leading:

- IC50 (human MC5 receptor [1]): 0.9 nM
- IC50 [2]: 0.1 nM
- IC50 (human MC4 receptor [3]): 0.1 nM
Molecule: MTII (peptide)

- IC50 (human MC5 receptor [1]): 0.4 nM
- IC50 [2]: 1.3 nM
- IC50 (human MC3 receptor [4]): 0.6 nM
- IC50 (human MC4 receptor [3]): 0.6 nM
Molecule: NDP-alpha-MSH (peptide)

- IC50 (human MC5 receptor [1]): 0.1 nM
- IC50 [2]: 0.2 nM
- IC50 (human MC3 receptor [4]): 0.3 nM
- IC50 (human MC4 receptor [3]): 0.1 nM
Molecule: SHU-9119 (peptide)
